Laboratory results from the NTF2 design screens of Basanta et al. (2020).

Test: protease stability score; higher = more stable; yeast display proteolysis, trypsin and chymotrypsin;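 further: relative to predicted unfolded state with 0 unfolded-like and 1 meaning tenfold more protease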

“NEEEEESKFANELWEETVKTGDERLNRSLADPNTRFHINGVDLHGWESMDETARRYKNITVRLHDMRTYNGRVHLDFEMRVGEFTTKVIIIARKFDGRWILKSIIVH” gave a protease stability score of 1.2.
Work on “NEEEEESKWAYEEMIKVVKTGDEERLKELADPHTRVHMLVNGRLHNLHGREFLVLAWRLLGFDHLELKRMHVEVVNGRVHINLHGHVEINGRTHTLHIHIDAEKVDGRWIVRRVEIRSE” yielded a protease stability score of 1.5.
In the case of “NEEEEESRRAFHLLVELLRTGDEESFTKLADPHMRIIVDGREIHGREEMRRFMEEHWERFPNMKVRIEHFRVQGDKVTIHTVVHIGDKEIEVHIHARKVNGRWIMKELIIVTR”, the protease stability score was 0.552.
In the case of “NEEEEHIFELWELFLKASHTGDEDSLKEFADPNTRQIVDGQEIHGREKFTEHLSWRAKELRLESVHIRRLHIIDGRIHVDGLIRGRINGREIEIETEVISIKVNGKWILKEMNFK”, the protease stability score was 1.28.
With “NEEEELLHRLAKRFIELFLTGDWEVMEKLFDPHVKIDVNGRESHGREQVWHLLMHLLHELRIHHILIRSFDVFDGRAHSSVEVNGEFNGKRDLTEAEVVIVSVDGKMKSVSIKLR” the protease stability score was 1.23.
“NEEEETARHAIEEFVRVLMTGDWRTLERLLDPNYRIYQGDKTYIGMEHFLELWVHILDRIKNLRLEIHSYEIQGEKVHIHTILNYDGRDIEYVIIQIKINGRWLLHSLHFL” gave a protease stability score of 1.24.
For “NEEEHELELAYRWYEESILTGDEDELTHLLDPHVRLQYGDKEFHGREIVLHFFHKHWREMGAKYIEVHSISLYGDKIVFDSTLHINGRTHRVHVTSRKVDGRWRIRSMRIN”, the protease stability score was 1.63.
With “NEEEHFMKEALEIWLHFFRTGDERDIQREFDPNARFEFENHTSHGRESVRELLTRLFHDLGINHVQFESIRVQGDKVEIHGHFFVDGRRYDFEMNSVKINGRWLNHTIRLR” the protease stability score was 1.12.
With “NEEEHKLEEEFERLMHLLLTGDEEKLHRLADPNVKVNVNGKDLHGMELFFHVWWEELKRYDYWHITIRHIDSQGNKADSEVELNLVFNGKEIRIDSRMHLEVVNGRIKRIEIRPI” the protease stability score was 1.63.
Sequence “NEEEHTFEIAIRILREMWETGDEKLSQELADPNARLDIGDKHFHGRESLRHRVHEMRIEHTDIHSYHTINGRVHMDWRVDGFINGQRHDTRMHLDVIKIDGRWIIKNVEVK” has a protease stability score of 0.571.
Work on “NEEEKIIKKDIEKEITAWETGDFDTLDHLLDPHARMDINGKDLHGREVLKTHFHEEWNRLGLEKVEIHIQDFRVIDGRVHIDGYMNVNGRHQKVRFIARKVNGRWIIHEVEFR” yielded a protease stability score of 1.32.
“NEEEKLSEEWSDHLLHNLITGDEEMLKRFMDPHTWAESEVDGQDEKYHGREQALHMVYRVIHRLGFNHFHIHRHRVIGDKIHVELRIVVGDKEVDAHFETIIINGKVHRIRIHVTKR” showed a protease stability score of 0.323.
“NEEEKRMVEEHEKFWNFVRTGDEDTVRDLIDPHARVIQGNKILHGWEEAVRWMKEIRIHDIRIHSSHEVDGRVTITGDMDFEFNGKRHILEVRIFLLKIDGRWIHTFIQID” showed a protease stability score of 1.33.
“NEEEQEILEDVEEHIRAEYTGDEEVLDNLADPNTRIHYGEKELHGREEWLQLVHDEHNRFKGMKIEVIIRHIDIYDGRVRSEGELHIHVGDKEYHVDVQMILTKVNGRWLLTRIHFH” showed a protease stability score of 0.093.
With “NEEERENIRIFMMWIEDLVTGNWDRIEHLADPHYRQDVNGRHIHGRDTFAQMVREEMHRIDHHEIKLRHVSVQGNKLRAHVEINLIIGEKRIEKEVIVDLNVINGVLHEVKIVVR” the protease stability score was 1.04.
For “NEEFRDAQMAAHEFINVMETGDEHLLSRRLDPNMRVDINGREFHGWEQWVRIFREIRVKSIRYEEIRVQGDKVHLHTRLHVTIGDYEFTTETTIFIDKINGVWYIKEFHMN”, the protease stability score was 0.253.
“NEEHEVLERVVELFMEILDTGNERLSRELVDPHVRVIIGDKELHGREQVARFHKELHERVDHWEIHIRRIEFQGDKLHMDFELRNDYNGVRITTDLIILVKKVNGVWKLRAREVR” gave a protease stability score of 0.271.
For “NEEKEEAERFTRQFLHSWRTGDEESLKRMADPNVRIIVGDYEKVGWEAIEETIKRLGIDHLEYHSVHVHVIGDKVNIHSDVRIQVNGQERDVQIHVHMRKINGRWFVESIRLNFH”, the protease stability score was 1.26.
Work on “NEEKELWHKDIEDLQRDWKTGDEDSVREQLDPDVRLDINGVEIIGMEEATRFIIELMREIRIHVNLERIIIQGDKIILHGNLVVEQGDKHHITRQTIDARKVDGRWFEHKVRVE” yielded a protease stability score of -0.033.
“NEEKETADTFLRHLVHRLHTGDEDMLMRLADPHVLIIQGDKTYHGWHWFERNFLEQINRFKGLTVKVERKDVHLFENRLILEGTLHLEFNGRDVHIEQEIIVHKINGRWILTHYMLI” showed a protease stability score of 0.813.
Work on “NEEKRDSDILRRHLLEVLDTGDWDRMHELADPNAKTHFNGRDHHGREDMTHLFRELGVKHQELRSVHLQGNYVEITIHVSVDGRHVHLRFFMVKIDGKWRIRHMEIEWL” yielded a protease stability score of 1.14.
“NEEQKEAEDFMRMVSRIHETGDEDSLRRYFDPNVRIKDENHHLHGWKELIHWTHRVDHIEVRVKNVDIQGDKIHLDGEEIVRIDGVEVRRRVLFILTKVNGRWHIQEIRIE” gave a protease stability score of 0.72.
For “NEEQNHAERMMRENLHNIMTGDEHKLHKLADPDARIEIGDKEIIGRELFSRILLELRFEITRVHIREITLIGDKVHVRTEEDVVIKVNGVEKRRHINSEWIFFKFNGQWLLKEVRFE”, the protease stability score was 1.34.
Sequence “NEERSHSEEVARLISHAWETGDEETLREQVDPHVKLVIGDKTFHGREEALTIIVQLRLRTVEIHDMKVVNGRLNLFTLWHIEIDGRRVLHHVVIHIEKIDGRWVMTEVRVH” has a protease stability score of 2.1.
Sequence “NEHEETIEILFRDIVHVLRTGDWKLFSDLMDPHARYVIGDKTFHGRESWVREFDRLLEQIKGVRFDVRHVNVVGDKVHAFTDWEFNGVMFDTRLDLHIVDGRIKEMRLEIR” has a protease stability score of 1.12.
For “NEHEEYARRQLELWLHATRTGDEETVRRLADPDVRVIVDGREHHGMEQLLRWMIELRITDFKEDTYEIQGNKIKIRGILYIEIGDKHETRFTTIELNWFNGVLKHIKVEVR”, the protease stability score was 1.28.
“NEHEKLLKESLEELRHALRTGDEESLERLVDPHARMVVNGVTYHGREYLHRFFHRIDYFHNEHLDVKEVHVQGDKIHFDVVTHGVFHVGDKKIKDTIRLSSIAEKIDGRWFNREIFHH” showed a protease stability score of 0.412.
With “NEHKEEALHALQLWLRYYETGNEDSLREMLDPNVRVVINGKELHGMELFLDYIVDTRDRIKGLRIIIDDIEIHYVGDKVHVNIRGISYFNGREHEVEINIFSRKINGKWYLSSLELRVN” the protease stability score was 2.55.
Work on “NEIEEIVERLWRLYIQNRLTGDEDQMSRLADPHTRVHIHIGDKHIDIHGMENTARLTTKLRREIRMEIEIHHVTVQGNKLHAEVRLILHIGDKILESDTRIINIFVDGKLRTVHIHIE” yielded a protease stability score of 1.32.
Sequence “NEIEELVRESLELLAHALETGDEKLMTELADPDTRLIVNGRHLWGWELHLMFLTRFDHIETRIRLTEMEVQGEKVNSRGDMDVIVNVDGQRDRKRHEFIIISTKINGRWRLKSVILR” has a protease stability score of 1.57.
With “NEINRHLHEAFKKLINVMMTGDEEESTELLDPNARINFNGKDFWGWNELRKSMHEARIHHIQITSVRYIGDKIIIHGTVDGEFDGQRKEVEMEIFSRKFNGQWFFESIIIR” the protease stability score was 1.28.
“NEKEEESKRFIELFMELIVTGNEEVLYKLADPTVQWRADVDGQEINLHGWEHIHDEINKFPNITLELEEREIQGDKVDIRTRLHIGDKTRDTRVIIIVINGRVKQIHIEIR” showed a protease stability score of 2.28.
Sequence “NEKEELLRKIMDMLIRHWETGDFEKLMELADPNVRLHYEQGDKEHHHHGREDVAKFIEELLRMLGVDHWHLEKIEIVGEKLHLHGRIHVNGRTIDLRIHWVVVNGVLKSVRIILG” has a protease stability score of 1.14.
“NELDKHTKEFAERWIKSVETGDWRSEEHLLDPHVKLETKVNGRDVRVVGREEVHRYLRELHEELGVDKVEFITRRIRLQGDKIDIDGELRINGRTHEAHIHLDIINGRIHSVRLQWT” showed a protease stability score of 1.44.
In the case of “NELEDLVRWAWQLIVESHQTGNEHMMEELADPNMRIHINGVDLVGRKDFRKMLKDHRDRVDHLEVELTDFILIDGRVIVHGQINIQIGDKREERRVRLFLLKINGKWRIEKLEVE”, the protease stability score was 1.64.
Work on “NELEDRFDYAMKLWIDILRTGDEHQFEEMADPNVRIIDGDKHNVGREILYFLLWKFGFDNFEFRLHDFKIQGEKIHIDGHFRVDGQTHRVHFVVLKIDGRWLVESVERK” yielded a protease stability score of 2.01.
“NELEEEAHRKMEKVLRHLQTGDEDSLHRLLDPNVRLIVGDKEMHGRERAVEVLSRILKEMGVKHIKLRRFSVFNGVAHTDSELNQGEYVHNLHLVIEKVDGQWVMRSLHIE” showed a protease stability score of 1.41.
In the case of “NELEKETHEITRRWIEILLTGNEEDWAKLADPHVRIDINGKKYVGREMVVEYLRELLDKIKNLQFHITRIHDQGDKSEIDGRLEYNGRKHEARVEIWIIDGKIRSEHYSIR”, the protease stability score was 2.2.
Work on “NELEKHLREMTREMLEAWRTGDFDHLEHLADPHVRIETIYNGQREEFHGREWLIKAVERLDRLMGIDHIYFQEWTTIGDFVDVDLRTQVGDKRIRLHMELNVVNGRIKFHRIEVE” yielded a protease stability score of 1.24.
“NELEKWVEQATREILRVMETGDPNETEKLIDPHVRREQGEFIYHGWENITHFMEHARFERYKLHDVDLQGDYVNLNGRLDGVYNGKKERTEVEFYVLKINGRWHVTSMHVH” gave a protease stability score of 1.28.
For “NELHKEYRHMLHILRHIIETGNERALEENMDPNYRIEIGDKRIHGREKALEFWWRLNKRVDHLELHDEHINLFEGHVEIDGRLILKQGEYIEESKTTIFIVKVNGRWVLRSFRVE”, the protease stability score was 1.86.
For “NELQYKILHALRLFVESLLTGDPTTIERLLDPDARNQWDGVHHVGMEEWSRFLEELRIQIHDLEFKHIEIVDGQLRVDGREDMIIDVNGVRTRTNRKLRLIIVKFDGRWRIESVKVE”, the protease stability score was 1.22.
Sequence “NELTEVIRYWIHLWLTQLFTGNEEIIRRLADPNARFEVNGREIHGMDEWVDILKRLGMRFHHFHVDTIEIIDGVIHVQSRFDIDINGRRVNEETYHVIEKINGRWTLRTMELR” has a protease stability score of 2.31.
Sequence “NEMDEHARHFAELFLRLMRTGDEETTEKLADPHVKVVIGDFEFHGWKMLSIFLREIRIHDIRLEDHRTQGNKSIIHGRTDGEINGQRYETELYIELHLVNGRLKSMRFEWR” has a protease stability score of 0.698.
In the case of “NEMEEYVERASRFVYELLQTGDWEKLMNNMDPNVKIRQGNKEYHGREELKRQLEELFKNWGFDRIDVEHHEIKIFENHAHIIHIMRFDGVEHELRIKALKVNGQWLFKTVEIRLH”, the protease stability score was 1.36.
With “NEMHDFAKLAIELLLKSLKTGDEHTLEHLLDPNVRMNIDGRRWHGRENWVKRVHDLGITTRDFKLTDVKNQGNKVHIDGHAVEEVNGQRIERRVEIISVKIDGKWEIEEIRIE” the protease stability score was 1.02.
In the case of “NEMHEHAREFLERWKEWMHTGDEETMSKLADPHVRNEYNGVIRVGMEALEKVIRELRVRRTHDHHEHIEFQGDKLHIHVDQESDIEINGVRHRVRIHFDIISVKINGKWTLKSIRLTFH”, the protease stability score was 1.41.
In the case of “NERDERVEELMKLWFESLRTGDWRQMRNLLDPHARVIMLVGDKHVELHGWEAMLLLIHQFRNIRLRIDSTRLQGDKLEIEGTSEFDGKHRNVVIEIQVINGRIHTIKYIED”, the protease stability score was 2.1.
Work on “NEREEHIRRLAELVRELIDTGDFDRLIKNADPNVRLEMEIGDKRIEHHGRERVHEQLEEFERRFKNATFIWKRIDVQGEKVLLDGTIRINGQEHEMHWDNQMFNGRIHSIRIDVR” yielded a protease stability score of 2.2.
“NEREKLVLDLAMRWFEAWLTGDEHLLHLLADPNVRFIYGDKHLIGMDELHRFLREIRIISRDRHFEDKRVIGDKVELDVRLRGEVDFNGRRLDIDLTVHIESHIINGKQHTSRMETI” showed a protease stability score of 1.07.
